Measured values published in patent publication US20210380703A1.
Positions count from the first letter of the chain named.

Target: Human Fc (human)
Assay: ELISA, negative control

B1: 367_H06 (antibody, V domains shown)
VH: EVQLLESGGGLVQPGGSLRLSCAASGFTFSSYGMNWVRQAPGKGLEWVSNINYNGGYTGYADSVKGRFTISRDNSKNTLYLQMNSLRAEDTAVYYCARSANWHDTHLDYWGQGTLVTVSS
VL: DIQMTQSPSSLSASVGDRVTITCRASQSIITYLNWYQQKPGKAPKLLIYAATSRASGVPSRFSGSGSGTDFTLTISSLQPEDFATYYCQQSYDTPLTFGGGTKVEIK
optical density: 0.313 OD

B2: 367_H11 (antibody, V domains shown)
VH: B1 VH with S49A, N50G, T58K, H106A
VL: B1 VL with T31S, L33V, L47V, D93N, T94S
optical density: 0.323 OD

B3: 368_A01 (antibody, V domains shown)
VH: B1 VH with G59S, H106A
VL: B1 VL with T31S, A55H, T94N
optical density: 0.396 OD

B4: 368_A05 (antibody, V domains shown)
VH: B1 VH with G33S, S49A, N50G, G55S, H106A
VL: B1 VL with I30V, T31S, L47V, T94S
optical density: 0.285 OD

B5: 368_A07 (antibody, V domains shown)
VH: B1 VH with G33S, S49A, N50G, G55S, G59S
VL: B1 VL with I30L, L47V, A51T, Y92N, D93E, T94L
optical density: 0.261 OD

B6: 368_A09 (antibody, V domains shown)
VH: B1 VH with S30D, G33S, N50G, G59S
VL: B1 VL with I30L, T31S, L33V, A51V, T94S
optical density: 0.277 OD

B7: 368_B01 (antibody, V domains shown)
VH: B1 VH with N50G, G55S, T58K, G59S, H106A
VL: B1 VL with I30S, T31S, D93E
optical density: 0.365 OD

B8: 368_C05 (antibody, V domains shown)
VH: B1 VH with S30D, N50G, G55S, G59S, H106A
VL: B1 VL with I30L, T31S, L47V, Y92D, D93S, T94N
optical density: 0.246 OD

B9: 368_D01 (antibody, V domains shown)
VH: B1 VH with N35H, S49A, G59S, H106A
VL: B1 VL with I30L, T31S, L47V, Y92D, D93S
optical density: 0.319 OD

B10: 368_D04 (antibody, V domains shown)
VH: B1 VH with N50G, T58K, G59S, H106A
VL: B1 VL with I30S, L33V, L47V, A51V, A55H, T94S
optical density: 0.338 OD

B11: 368_D05 (antibody, V domains shown)
VH: B1 VH with G33S, N50G, G59S, H106A
VL: B1 VL with I30L, L47V, Y92D, T94S
optical density: 0.282 OD

B12: 368_D11 (antibody, V domains shown)
VH: B1 VH with S30D, S31D, T58K, G59S, H106A
VL: B1 VL with I30L, L47V, T94L
optical density: 0.297 OD

B13: 368_E01 (antibody, V domains shown)
VH: B1 VH with G33S, S49A, N50S, G55S
VL: B1 VL with I30L, T31S, A51V, A55H, D93S, T94L
optical density: 0.392 OD

B14: 368_E04 (antibody, V domains shown)
VH: B1 VH with G33S, S49A, G55S, H106A
VL: B1 VL with I30L, T31S, L33V, A55H, T94N
optical density: 0.32 OD

B15: 368_E06 (antibody, V domains shown)
VH: B1 VH with S31D, N35H, N50G, H106A
VL: B1 VL with I30L, T31S, L47V, A50G, T94S
optical density: 0.325 OD

B16: 368_E07 (antibody, V domains shown)
VH: B1 VH with S49A, N50G, G59S, R98K, H106A
VL: B1 VL with I30L, T31S, A51V, D93E, T94N
optical density: 0.251 OD

B17: 368_F03 (antibody, V domains shown)
VH: B1 VH with S30D, G33S, S49A, N50G, G55S, R98K, H106A
VL: B1 VL with T31S, L47V, A55H, T94S
optical density: 0.323 OD

B18: 368_F11 (antibody, V domains shown)
VH: B1 VH with S31D, N50G, G59S
VL: B1 VL with I30V, T31S, L33V, L47V, D93N, T94N
optical density: 0.338 OD

B19: 368_G01 (antibody, V domains shown)
VH: B1 VH with S31D, N35H, S49A, N50S, G55S, G59S, H106A
VL: B1 VL with I30L, L47V, D93N, T94L
optical density: 0.431 OD

B20: 368_G12 (antibody, V domains shown)
VH: B1 VH with S49A, N50S, G55S, H106A
VL: B1 VL with I30S, T31S, L33V, L47V, A51V, D93E
optical density: 0.341 OD

B21: 368_H04 (antibody, V domains shown)
VH: B1 VH with G33S, S49A, N50G, G55S, T58K, R98K
VL: B1 VL with I30V, T31S, L33V, T94S
optical density: 0.319 OD

B22: 369_A02 (antibody, V domains shown)
VH: B1 VH with G33S, S49A, N50G, G55S
VL: B1 VL with I30L, T31S, L33V, T94L
optical density: 0.383 OD

B23: 369_B01 (antibody, V domains shown)
VH: B1 VH with G33S, N50G, G59S, H106A
VL: B1 VL with I30L, T31S, A51V, D93E, T94N
optical density: 0.487 OD

B24: 369_C02 (antibody, V domains shown)
VH: B1 VH with S30D, G33S, T58K, G59S, H106A
VL: B1 VL with I30L, L47V, D93E, T94L
optical density: 0.369 OD

B25: 369_C03 (antibody, V domains shown)
VH: B1 VH with T58K, G59S, H106A
VL: B1 VL with I30L, L47V, T94S
optical density: 0.323 OD

B26: 369_C04 (antibody, V domains shown)
VH: B1 VH with G33S, H106A
VL: B1 VL with I30L, L33V, A50T, A51T, R54L, A55H, D93N, T94N
optical density: 0.248 OD

B27: 369_D02 (antibody, V domains shown)
VH: B1 VH with S31D, G33S, G55S, H106A
VL: B1 VL with I30L, T31S, L47V, A51V
optical density: 0.407 OD

B28: 369_D04 (antibody, V domains shown)
VH: B1 VH with S30D, N50G, G59S, H106A
VL: B1 VL with I30L, T31S, L33V, L47V, D93N, T94L
optical density: 0.435 OD

B29: 369_D12 (antibody, V domains shown)
VH: B1 VH with S30D, G33S, S49A, N50G, G55S, G59S, H106A
VL: B1 VL with I30L, T31S, R54L
optical density: 0.425 OD

B30: 369_E02 (antibody, V domains shown)
VH: B1 VH with S30D, H106A
VL: B1 VL with I30V, T31S, L33V, A51T, A55H, T94N
optical density: 0.365 OD

B31: 369_E11 (antibody, V domains shown)
VH: B1 VH with G59S, H106A
VL: B1 VL with T31S, R54L
optical density: 0.343 OD

B32: 369_E12 (antibody, V domains shown)
VH: B1 VH with N35H, S49A, N50S, G55S, G59S, H106A
VL: B1 VL with T31S, D93E, T94S
optical density: 0.452 OD

B33: 369_F01 (antibody, V domains shown)
VH: B1 VH with N50G, T58K, G59S, H106A
VL: B1 VL with I30L, L33V, D93E, T94L
optical density: 0.554 OD

B34: 369_F02 (antibody, V domains shown)
VH: B1 VH with S49A, N50S, G55S, T58K, G59S, H106A
VL: B1 VL with I30V, T31S, L47V
optical density: 0.478 OD

B35: 369_F03 (antibody, V domains shown)
VH: B1 VH with S31D, N50G, G55S, G59S, H106A
VL: B1 VL with I30V, T31S, L33V, R54L, T94S
optical density: 0.389 OD

B36: 369_F06 (antibody, V domains shown)
VH: B1 VH with S30D, S31D, G33S, S49A, N50G, T58K, H106A
VL: B1 VL with I30V, T31S, L33V, L47V, T94S
optical density: 0.353 OD

B37: 369_F10 (antibody, V domains shown)
VH: B1 VH with S30D, G55S, T58K, G59S, H106A
VL: B1 VL with I30V, A51V, T94L
optical density: 0.361 OD

B38: 369_F11 (antibody, V domains shown)
VH: B1 VH with S30D, G55S, T58K, G59S, H106A
VL: B1 VL with T31S, T94L
optical density: 0.37 OD

B39: 369_G04 (antibody, V domains shown)
VH: B1 VH with S30D, G33S, N50G, G59S, H106A
VL: B1 VL with I30L, L33V, A51T, A55H, D93E
optical density: 0.385 OD

B40: 369_G06 (antibody, V domains shown)
VH: B1 VH with S30D, S49A, N50G, G59S, H106A
VL: B1 VL with I30L, T31S, L33V, L47V, D93E, T94N
optical density: 0.474 OD

B41: 369_G11 (antibody, V domains shown)
VH: B1 VH with G33S, S49A, G55S, T58K, H106A
VL: B1 VL with I30L, R54L, D93E, T94S
optical density: 0.331 OD

B42: 369_G12 (antibody, V domains shown)
VH: B1 VH with G33S, S49A, H106A
VL: B1 VL with I30L, L33V, L47V, A55H, Y92D, D93N
optical density: 0.353 OD

B43: 369_H05 (antibody, V domains shown)
VH: B1 VH with S49A, H106A
VL: B1 VL with I30V, T31S, L33V, D93S, T94N
optical density: 0.457 OD

B44: 369_H06 (antibody, V domains shown)
VH: B1 VH with S49A, T58K, G59S, H106A
VL: B1 VL with I30V, T31S, L33V
optical density: 0.347 OD

B45: 369_H09 (antibody, V domains shown)
VH: B1 VH with S30D, S31D, G33S, N50G, G59S, H106A
VL: B1 VL with I30L, T31S, L33V, A51V, R54L, D93E, T94S
optical density: 0.365 OD

B46: 370_A01 (antibody, V domains shown)
VH: B1 VH with G33S, N50G, G55S, T58K, G59S, H106A
VL: B1 VL with I30S, L47V, D93N, T94L
optical density: 0.637 OD

B47: 370_A03 (antibody, V domains shown)
VH: B1 VH with G33S, G59S, H106A
VL: B1 VL with I30L, T31S, T94S
optical density: 0.424 OD

B48: 370_A04 (antibody, V domains shown)
VH: B1 VH with S30D, G33S, N50G, G59S, H106A
VL: B1 VL with T94N
optical density: 0.377 OD
